The target of assay [1] is T1, VWF-FP N1134C mutant (albumin-fused von Willebrand Factor) (human).
T1 construct: Stably expressed in CHO cells with furin co-transfected; also called VWF-FP mutant N1134C; Cys residue at VWF aa position 1134; not shown: linker between VWF and albumin, made in analogy to WO 2009/156137
Description: covalent-FVIII ELISA over FVIII activity assay. (ELISA stands for enzyme-linked immunosorbent assay.)

In assay [2] the target is T1, VWF-FP N1134C mutant (albumin-fused von …). Description: covalent-FVIII ELISA over FVIII antigen ELISA.
Assay [3] shares this target. Description: ELISA of co-expression supernatant: anti-VWF capture, 350 mM CaCl2 wash, anti-FVIII detection. On the procedure:
(§1) Cell culture supernatant samples (10 ml) from transient transfections were concentrated with Amicon Ultracell-30K (Millipore UFC903024; 3000 g centrifugation). FVIII covalently attached to VWF-FP in culture supernatant (concentrates) was determined by a standard ELISA. Briefly, microplates were incubated with 100 μL per well of the capture antibody (rabbit anti human VWF-IgG, Dako A0082 [Dako, Hamburg, Germany], diluted 1:2000 in buffer A [Sigma C3041, Sigma-Aldrich, Munich, Germany]) overnight at ambient temperature. After washing plates three times with buffer B (Sigma T9039), each well was incubated with 200 μL buffer C (Sigma T6789) for 1.5 hours at ambient temperature (blocking). After another three wash steps with buffer B, serial dilutions of the test sample in buffer B as well as serial dilutions of a control preparation of covalently linked FVIII-VWF-FP, (2.0-0.03 arbitrary U/ml in buffer B (we call these “arbitrary units” as they may not correspond to the standard FVIII units as determined using Standard Human Plasma); volumes per well: 100 μL) were incubated for 1.5 hours at ambient temperature. After three wash steps with buffer B, 200 μL of 350 mM CaCl₂ were added to each well and incubated for 1 hour at ambient temperature. CaCl₂ was removed (without washing) and additional 200 μl were added to each well and incubated further for 1 hour. After three wash steps with buffer B 100 μL of a 1:2 dilution in buffer B of the detection antibody (Detecting Antibody for FVIII:C, peroxidase labelled, Cedarlane CL20035K-D) were added to each well and incubated for 1 hour at ambient temperature. After three wash steps with buffer B, 100 μL of substrate solution (OUVF, Siemens Healthcare Diagnostics) were added per well and incubated for 15 minutes at ambient temperature in the dark. Addition of 100 μL undiluted stop dilution (OSFA, Siemens Healthcare Diagnostics) prepared the samples for reading in a suitable microplate reader at 450 nm wavelength. Concentrations of the test samples were then calculated using the standard curve with the control preparation.

Assay [4] has as its target T2, VWF-FP K1116C mutant (albumin-fused von Willebrand Factor) (human).
T2 construct: Stably expressed in CHO cells with furin co-transfected; also called VWF-FP mutant K1116C; Cys residue at VWF aa position 1116; not shown: linker between VWF and albumin, made in analogy to WO 2009/156137
Description: covalent-FVIII ELISA over FVIII activity assay.

For assay [5], the target named is T3, VWF-FP R768C mutant (albumin-fused von Willebrand Factor) (human).
T3 construct: Stably expressed in CHO cells with furin co-transfected; also called VWF-FP mutant R768C; Cys residue at VWF aa position 768; not shown: linker between VWF and albumin, made in analogy to WO 2009/156137
T3 sequence (chain, as listed by the source R768C R768C): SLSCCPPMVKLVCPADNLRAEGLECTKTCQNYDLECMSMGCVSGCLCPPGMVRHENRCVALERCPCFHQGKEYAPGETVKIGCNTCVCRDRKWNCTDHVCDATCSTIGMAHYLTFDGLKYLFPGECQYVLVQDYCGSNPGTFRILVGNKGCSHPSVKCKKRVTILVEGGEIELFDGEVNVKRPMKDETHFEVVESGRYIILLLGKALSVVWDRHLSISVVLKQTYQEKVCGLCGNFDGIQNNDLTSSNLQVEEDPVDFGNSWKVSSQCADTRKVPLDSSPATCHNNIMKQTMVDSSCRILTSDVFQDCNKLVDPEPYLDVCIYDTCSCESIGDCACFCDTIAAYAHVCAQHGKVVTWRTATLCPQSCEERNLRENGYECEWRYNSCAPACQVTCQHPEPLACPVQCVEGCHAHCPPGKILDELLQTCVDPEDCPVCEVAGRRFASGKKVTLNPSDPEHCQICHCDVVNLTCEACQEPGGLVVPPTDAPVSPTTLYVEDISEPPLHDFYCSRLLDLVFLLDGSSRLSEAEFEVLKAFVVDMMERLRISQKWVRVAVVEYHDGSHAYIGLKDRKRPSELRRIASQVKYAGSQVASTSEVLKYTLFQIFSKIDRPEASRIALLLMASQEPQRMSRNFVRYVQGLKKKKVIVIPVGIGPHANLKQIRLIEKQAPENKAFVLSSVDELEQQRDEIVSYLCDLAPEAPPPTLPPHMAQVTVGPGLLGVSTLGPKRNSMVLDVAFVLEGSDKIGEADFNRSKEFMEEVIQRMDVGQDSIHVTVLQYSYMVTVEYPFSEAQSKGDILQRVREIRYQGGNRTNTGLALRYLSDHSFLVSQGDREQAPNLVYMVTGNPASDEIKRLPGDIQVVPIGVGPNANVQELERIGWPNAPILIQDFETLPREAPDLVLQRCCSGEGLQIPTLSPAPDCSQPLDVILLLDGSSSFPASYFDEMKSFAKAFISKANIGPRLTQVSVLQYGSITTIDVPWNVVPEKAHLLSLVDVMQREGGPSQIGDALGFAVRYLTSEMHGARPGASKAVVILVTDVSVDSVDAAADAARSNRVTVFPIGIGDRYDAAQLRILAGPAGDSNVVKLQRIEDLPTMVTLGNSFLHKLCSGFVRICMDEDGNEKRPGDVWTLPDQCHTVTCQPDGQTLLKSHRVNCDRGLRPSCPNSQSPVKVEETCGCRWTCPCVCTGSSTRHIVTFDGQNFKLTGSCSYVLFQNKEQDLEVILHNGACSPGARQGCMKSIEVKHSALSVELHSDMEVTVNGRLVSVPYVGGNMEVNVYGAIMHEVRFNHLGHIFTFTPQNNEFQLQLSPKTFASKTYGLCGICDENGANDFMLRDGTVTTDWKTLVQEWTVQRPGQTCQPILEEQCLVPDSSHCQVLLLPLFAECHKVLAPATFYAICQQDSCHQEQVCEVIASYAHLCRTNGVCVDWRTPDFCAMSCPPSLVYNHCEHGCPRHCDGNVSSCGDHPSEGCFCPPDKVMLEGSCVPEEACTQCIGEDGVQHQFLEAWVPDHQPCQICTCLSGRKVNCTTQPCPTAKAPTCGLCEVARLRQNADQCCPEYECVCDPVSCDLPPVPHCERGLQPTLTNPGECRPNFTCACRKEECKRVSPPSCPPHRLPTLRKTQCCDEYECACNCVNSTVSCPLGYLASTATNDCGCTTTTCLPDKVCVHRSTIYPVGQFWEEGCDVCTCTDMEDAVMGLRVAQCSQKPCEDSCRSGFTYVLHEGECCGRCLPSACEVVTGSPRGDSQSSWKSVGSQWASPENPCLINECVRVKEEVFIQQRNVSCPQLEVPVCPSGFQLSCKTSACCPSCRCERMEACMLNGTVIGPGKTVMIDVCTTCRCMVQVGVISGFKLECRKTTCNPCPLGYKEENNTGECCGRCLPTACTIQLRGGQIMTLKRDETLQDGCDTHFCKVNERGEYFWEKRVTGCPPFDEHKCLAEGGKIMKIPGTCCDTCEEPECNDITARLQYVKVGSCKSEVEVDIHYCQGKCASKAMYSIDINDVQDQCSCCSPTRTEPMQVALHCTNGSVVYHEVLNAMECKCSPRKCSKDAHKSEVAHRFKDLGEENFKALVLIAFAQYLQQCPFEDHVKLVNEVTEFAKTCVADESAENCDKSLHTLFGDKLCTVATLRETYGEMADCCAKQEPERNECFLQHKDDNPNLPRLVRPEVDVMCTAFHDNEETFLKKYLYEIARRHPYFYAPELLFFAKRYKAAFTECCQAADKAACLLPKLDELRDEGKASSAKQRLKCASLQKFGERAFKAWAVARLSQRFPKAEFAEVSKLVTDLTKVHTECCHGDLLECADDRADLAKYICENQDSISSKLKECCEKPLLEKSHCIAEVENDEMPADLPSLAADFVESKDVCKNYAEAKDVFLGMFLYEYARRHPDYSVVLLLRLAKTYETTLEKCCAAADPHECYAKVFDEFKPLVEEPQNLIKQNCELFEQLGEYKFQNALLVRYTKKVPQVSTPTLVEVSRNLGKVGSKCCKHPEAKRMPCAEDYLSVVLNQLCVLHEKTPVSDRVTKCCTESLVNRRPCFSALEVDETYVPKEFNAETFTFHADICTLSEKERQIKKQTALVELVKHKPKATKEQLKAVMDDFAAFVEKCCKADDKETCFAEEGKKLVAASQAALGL
Description: covalent-FVIII ELISA over FVIII activity assay.

For assay [6], the target named is T2, VWF-FP K1116C mutant (albumin-fused von …). Description: covalent-FVIII ELISA over FVIII antigen ELISA.
The target in assay [7] is T3, VWF-FP R768C mutant (albumin-fused von …). Description: covalent-FVIII ELISA over FVIII antigen ELISA.
In assay [8] the target is T2, VWF-FP K1116C mutant (albumin-fused von …). Description: ELISA of co-expression supernatant: anti-VWF capture, 350 mM CaCl2 wash, anti-FVIII detection. How it is done:
as §1

In assay [9] the target is T3, VWF-FP R768C mutant (albumin-fused von …). The description is as above. How it is done:
as §1

T2 sequence (chain, as listed by the source K1116C K1116C): as the sequence (chain, as listed by the source R768C R768C) above, with C5R, K353C counted along it
T1 sequence (chain, as listed by the source N1134C N1134C): as the sequence (chain, as listed by the source R768C R768C) above, with C5R, N371C counted along it

B1: Factor VIII SingleChain Q1656C mutant (other)
chain: ATRRYYLGAVELSWDYMQSDLGELPVDARFPPRVPKSFPFNTSVVYKKTLFVEFTDHLFNIAKPRPPWMGLLGPTIQAEVYDTVVITLKNMASHPVSLHAVGVSYWKASEGAEYDDQTSQREKEDDKVFPGGSHTYVWQVLKENGPMASDPLCLTYSYLSHVDLVKDLNSGLIGALLVCREGSLAKEKTQTLHKFILLFAVFDEGKSWHSETKNSLMQDRDAASARAWPKMHTVNGYVNRSLPGLIGCHRKSVYWHVIGMGTTPEVHSIFLEGHTFLVRNHRQASLEISPITFLTAQTLLMDLGQFLLFCHISSHQHDGMEAYVKVDSCPEEPQLRMKNNEEAEDYDDDLTDSEMDVVRFDDDNSPSFIQIRSVAKKHPKTWVHYIAAEEEDWDYAPLVLAPDDRSYKSQYLNNGPQRIGRKYKKVRFMAYTDETFKTREAIQHESGILGPLLYGEVGDTLLIIFKNQASRPYNIYPHGITDVRPLYSRRLPKGVKHLKDFPILPGEIFKYKWTVTVEDGPTKSDPRCLTRYYSSFVNMERDLASGLIGPLLICYKESVDQRGNQIMSDKRNVILFSVFDENRSWYLTENIQRFLPNPAGVQLEDPEFQASNIMHSINGYVFDSLQLSVCLHEVAYWYILSIGAQTDFLSVFFSGYTFKHKMVYEDTLTLFPFSGETVFMSMENPGLWILGCHNSDFRNRGMTALLKVSSCDKNTGDYYEDSYEDISAYLLSKNNAIEPRSFSQNSRHRSTRQKQFNATTIPENTTLCSDQEEIDYDDTISVEMKKEDFDIYDEDENQSPRSFQKKTRHYFIAAVERLWDYGMSSSPHVLRNRAQSGSVPQFKKVVFQEFTDGSFTQPLYRGELNEHLGLLGPYIRAEVEDNIMVTFRNQASRPYSFYSSLISYEEDQRQGAEPRKNFVKPNETKTYFWKVQHHMAPTKDEFDCKAWAYFSDVDLEKDVHSGLIGPLLVCHTNTLNPAHGRQVTVQEFALFFTIFDETKSWYFTENMERNCRAPCNIQMEDPTFKENYRFHAINGYIMDTLPGLVMAQDQRIRWYLLSMGSNENIHSIHFSGHVFTVRKKEEYKMALYNLYPGVFETVEMLPSKAGIWRVECLIGEHLHAGMSTLFLVYSNKCQTPLGMASGHIRDFQITASGQYGQWAPKLARLHYSGSINAWSTKEPFSWIKVDLLAPMIIHGIKTQGARQKFSSLYISQFIIMYSLDGKKWQTYRGNSTGTLMVFFGNVDSSGIKHNIFNPPIIARYIRLHPTHYSIRSTLRMELMGCDLNSCSMPLGMESKAISDAQITASSYFTNMFATWSPSKARLHLQGRSNAWRPQVNNPKEWLQVDFQKTMKVTGVTTQGVKSLLTSMYVKEFLISSSQDGHQWTLFFQNGKVKVFQGNQDSFTPVVNSLDPPLLTRYLRIHPQSWVHQIALRMEVLGCEAQDLY
notes: Single-chain FVIII with partial B-domain deletion; also called FVIII-SC Q1656C; Cys residue at FVIII aa position 1656
With B1, in assay [1], the “ratio covalent FVIII/Total FVIII activity” value turned out to be 0.44. For the same molecule, the “ratio covalent FVIII/Total FVIII antigen” value in assay [2] came to 1. In addition, the “covalent FVIII” value in [3] was 435 amU/ml.

B2: Factor VIII SingleChain E1682C mutant (other)
chain: ATRRYYLGAVELSWDYMQSDLGELPVDARFPPRVPKSFPFNTSVVYKKTLFVEFTDHLFNIAKPRPPWMGLLGPTIQAEVYDTVVITLKNMASHPVSLHAVGVSYWKASEGAEYDDQTSQREKEDDKVFPGGSHTYVWQVLKENGPMASDPLCLTYSYLSHVDLVKDLNSGLIGALLVCREGSLAKEKTQTLHKFILLFAVFDEGKSWHSETKNSLMQDRDAASARAWPKMHTVNGYVNRSLPGLIGCHRKSVYWHVIGMGTTPEVHSIFLEGHTFLVRNHRQASLEISPITFLTAQTLLMDLGQFLLFCHISSHQHDGMEAYVKVDSCPEEPQLRMKNNEEAEDYDDDLTDSEMDVVRFDDDNSPSFIQIRSVAKKHPKTWVHYIAAEEEDWDYAPLVLAPDDRSYKSQYLNNGPQRIGRKYKKVRFMAYTDETFKTREAIQHESGILGPLLYGEVGDTLLIIFKNQASRPYNIYPHGITDVRPLYSRRLPKGVKHLKDFPILPGEIFKYKWTVTVEDGPTKSDPRCLTRYYSSFVNMERDLASGLIGPLLICYKESVDQRGNQIMSDKRNVILFSVFDENRSWYLTENIQRFLPNPAGVQLEDPEFQASNIMHSINGYVFDSLQLSVCLHEVAYWYILSIGAQTDFLSVFFSGYTFKHKMVYEDTLTLFPFSGETVFMSMENPGLWILGCHNSDFRNRGMTALLKVSSCDKNTGDYYEDSYEDISAYLLSKNNAIEPRSFSQNSRHRSTRQKQFNATTIPENTTLQSDQEEIDYDDTISVEMKKEDFDIYDCDENQSPRSFQKKTRHYFIAAVERLWDYGMSSSPHVLRNRAQSGSVPQFKKVVFQEFTDGSFTQPLYRGELNEHLGLLGPYIRAEVEDNIMVTFRNQASRPYSFYSSLISYEEDQRQGAEPRKNFVKPNETKTYFWKVQHHMAPTKDEFDCKAWAYFSDVDLEKDVHSGLIGPLLVCHTNTLNPAHGRQVTVQEFALFFTIFDETKSWYFTENMERNCRAPCNIQMEDPTFKENYRFHAINGYIMDTLPGLVMAQDQRIRWYLLSMGSNENIHSIHFSGHVFTVRKKEEYKMALYNLYPGVFETVEMLPSKAGIWRVECLIGEHLHAGMSTLFLVYSNKCQTPLGMASGHIRDFQITASGQYGQWAPKLARLHYSGSINAWSTKEPFSWIKVDLLAPMIIHGIKTQGARQKFSSLYISQFIIMYSLDGKKWQTYRGNSTGTLMVFFGNVDSSGIKHNIFNPPIIARYIRLHPTHYSIRSTLRMELMGCDLNSCSMPLGMESKAISDAQITASSYFTNMFATWSPSKARLHLQGRSNAWRPQVNNPKEWLQVDFQKTMKVTGVTTQGVKSLLTSMYVKEFLISSSQDGHQWTLFFQNGKVKVFQGNQDSFTPVVNSLDPPLLTRYLRIHPQSWVHQIALRMEVLGCEAQDLY
notes: Single-chain FVIII with partial B-domain deletion; also called FVIII-SC E1682C; Cys residue at FVIII aa position 1682
With B2, the “ratio covalent FVIII/Total FVIII activity” value came to 0.34 in assay [4] and 2.11 in assay [5]. In addition, the “ratio covalent FVIII/Total FVIII antigen” value was found to be 1.23 in assay [6] and 2.23 in assay [7]. Besides, the “covalent FVIII” value in assay [8] came to 488 amU/ml; in assay [9], 328 amU/ml.

Source of the values: patent US20180092966A1 (CSL, published 2018).
